In the supplement of paper PMC5998384:

Legend:
HeLa Kyoto [1] = assay: solubility in G1/S (NP-40 vs SDS abundance) (log2 ratio); higher = more soluble; details: cell cycle stage: G1/S
HeLa Kyoto [2] = assay: melting temperature (median over replicates), in situ; higher = more thermally stable
HeLa Kyoto [3] = assay: solubility change mitosis vs G1/S (difference of NP-40 vs SDS log2 ratios) (log2 ratio difference); higher = more soluble in mitosis
HeLa Kyoto [4] = assay: thermal stability score vs G1/S (z-score of summed log2 fold changes over temperatures); higher = more thermally stable than in G1/S
[5] = cell cycle stage: early G1 (4.5 h after nocodazole release)
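For melting temperature (median over replicates), in situ in this document: HeLa Kyoto cells synchronized by double thymidine or nocodazole block, proteins quantified by TMT10plex mass spectrometry, three independent biological replicates.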
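For solubility change mitosis vs G1/S (difference of NP-40 vs SDS log2 ratios) in this document: synchronized HeLa Kyoto cells (double thymidine block for G1/S, nocodazole release for mitosis), protein amounts in NP-40 versus SDS lysates quantified by mass spectrometry, three biological replicates.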
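For solubility in G1/S (NP-40 vs SDS abundance) in this document: HeLa Kyoto cells arrested at G1/S by double thymidine block, proteins quantified by TMT10plex mass spectrometry in mild NP-40 versus SDS extracts, three biological replicates.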
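For thermal stability score vs G1/S (z-score of summed log2 fold changes over temperatures) in this document: synchronized HeLa Kyoto cells, proteins quantified by TMT10plex mass spectrometry, three biological replicates, mitosis taken 0.5 h after nocodazole release, G1/S directly after double thymidine block.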

Chain of HNRNPAB (chain, as listed by the source): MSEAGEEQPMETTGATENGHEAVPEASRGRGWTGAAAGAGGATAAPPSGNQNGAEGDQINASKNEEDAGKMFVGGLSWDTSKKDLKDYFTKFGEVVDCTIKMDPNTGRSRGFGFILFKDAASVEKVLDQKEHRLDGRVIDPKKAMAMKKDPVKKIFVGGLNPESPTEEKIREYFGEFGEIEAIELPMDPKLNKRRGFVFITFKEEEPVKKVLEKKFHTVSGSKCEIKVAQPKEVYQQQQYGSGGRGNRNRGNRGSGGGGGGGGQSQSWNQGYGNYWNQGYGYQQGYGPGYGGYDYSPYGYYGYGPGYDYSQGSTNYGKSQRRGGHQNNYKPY
Chain of C5ORF22 (chain, as listed by the source): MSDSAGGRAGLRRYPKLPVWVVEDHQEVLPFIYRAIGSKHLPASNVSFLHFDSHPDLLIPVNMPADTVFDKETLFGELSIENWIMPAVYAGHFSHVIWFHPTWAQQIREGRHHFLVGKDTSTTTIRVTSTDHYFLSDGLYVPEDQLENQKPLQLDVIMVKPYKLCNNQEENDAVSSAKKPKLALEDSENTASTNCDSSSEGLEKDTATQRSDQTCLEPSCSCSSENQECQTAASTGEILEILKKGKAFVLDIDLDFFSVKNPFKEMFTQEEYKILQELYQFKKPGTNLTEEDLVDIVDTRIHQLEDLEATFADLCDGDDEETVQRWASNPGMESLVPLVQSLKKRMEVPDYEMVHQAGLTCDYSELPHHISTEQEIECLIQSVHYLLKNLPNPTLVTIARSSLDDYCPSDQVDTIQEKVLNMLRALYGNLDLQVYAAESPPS

Row | Substance | solubility in G1/S (log2) (HeLa Kyoto [1]) | melting temperature (HeLa Kyoto [2]; cell cycle stage: G1/S) [°C] | melting temperature (HeLa Kyoto [2]; cell cycle stage: mitosis) [°C] | solubility change mitosis (log2) (HeLa Kyoto [3]) | thermal stability score (HeLa Kyoto [4]; [5]) | thermal stability score (HeLa Kyoto [4]; cell cycle stage: mitosis)
1 | MLRRILQRTPGRVGSQGSDLDSSATPINTVDVNNESSSEGFICPQCMKSLGSADELFKHYEAVHDAGNDSGHGGESNLALKRDDVTLLRQEVQDLQASLKEEKWYSEELKKELEKYQGLQQQEAKPDGLVTDSSAELQSLEQQLEEAQTENFNIKQMKDLFEQKAAQLATEIADIKSKYDEERSLREAAEQKVTRLTEELNKEATVIQDLKTELLQRPGIEDVAVLKKELVQVQTLMDNMTLERERESEKLKDECKKLQSQYASSEATISQLRSELAKGPQEVAVYVQELQKLKSSVNELTQKNQTLTENLLKKEQDYTKLEEKHNEESVSKKNIQATLHQKDLDCQQLQSRLSASETSLHRIHVELSEKGEATQKLKEELSEVETKYQHLKAEFKQLQQQREEKEQHGLQLQSEINQLHSKLLETERQLGEAHGRLKEQRQLSSEKLMDKEQQVADLQLKLSRLEEQLKEKVTNSTELQHQLDKTKQQHQEQQALQQSTTAKLREAQNDLEQVLRQIGDKDQKIQNLEALLQKSKENISLLEKEREDLYAKIQAGEGETAVLNQLQEKNHTLQEQVTQLTEKLKNQSESHKQAQENLHDQVQEQKAHLRAAQDRVLSLETSVNELNSQLNESKEKVSQLDIQIKAKTELLLSAEAAKTAQRADLQNHLDTAQNALQDKQQELNKITTQLDQVTAKLQDKQEHCSQLESHLKEYKEKYLSLEQKTEELEGQIKKLEADSLEVKASKEQALQDLQQQRQLNTDLELRATELSKQLEMEKEIVSSTRLDLQKKSEALESIKQKLTKQEEEKKILKQDFETLSQETKIQHEELNNRIQTTVTELQKVKMEKEALMTELSTVKDKLSKVSDSLKNSKSEFEKENQKGKAAILDLEKTCKELKHQLQVQMENTLKEQKELKKSLEKEKEASHQLKLELNSMQEQLIQAQNTLKQNEKEEQQLQGNINELKQSSEQKKKQIEALQGELKIAVLQKTELENKLQQQLTQAAQELAAEKEKISVLQNNYEKSQETFKQLQSDFYGRESELLATRQDLKSVEEKLSLAQEDLISNRNQIGNQNKLIQELKTAKATLEQDSAKKEQQLQERCKALQDIQKEKSLKEKELVNEKSKLAEIEEIKCRQEKEITKLNEELKSHKLESIKEITNLKDAKQLLIQQKLELQGKADSLKAAVEQEKRNQQILKDQVKKEEEELKKEFIEKEAKLHSEIKEKEVGMKKHEENEAKLTMQITALNENLGTVKKEWQSSQRRVSELEKQTDDLRGEIAVLEATVQNNQDERRALLERCLKGEGEIEKLQTKVLELQRKLDNTTAAVQELGRENQSLQIKHTQALNRKWAEDNEVQNCMACGKGFSVTVRRHHCRQCGNIFCAECSAKNALTPSSKKPVRVCDACFNDLQG [EEA1] | 0.678 | 57.3 | 58 | 0.0149 | -3.01 | -4.2
2 | MALLFARSLRLCRWGAKRLGVASTEAQRGVSFKLEEKTAHSSLALFRDDTGVKYGLVGLEPTKVALNVERFREWAVVLADTAVTSGRHYWEVTVKRSQQFRIGVADVDMSRDSCIGVDDRSWVFTYAQRKWYTMLANEKAPVEGIGQPEKVGLLLEYEAQKLSLVDVSQVSVVHTLQTDFRGPVVPAFALWDGELLTHSGLEVPEGL [SPRYD4] | -0.0415 | 53.9 | 54.8 | -0.14 | -1.47 | -3.25
3 | C5ORF22 | 0.303 | 50.7 | – | -0.166 | -0.108 | 1.41
4 | MTLDMDAVLSDFVRSTGAEPGLARDLLEGKNWDVNAALSDFEQLRQVHAGNLPPSFSEGSGGSRTPEKGFSDREPTRPPRPILQRQDDIVQEKRLSRGISHASSSIVSLARSHVSSNGGGGGSNEHPLEMPICAFQLPDLTVYNEDFRSFIERDLIEQSMLVALEQAGRLNWWVSVDPTSQRLLPLATTGDGNCLLHAASLGMWGFHDRDLMLRKALYALMEKGVEKEALKRRWRWQQTQQNKESGLVYTEDEWQKEWNELIKLASSEPRMHLGTNGANCGGVESSEEPVYESLEEFHVFVLAHVLRRPIVVVADTMLRDSGGEAFAPIPFGGIYLPLEVPASQCHRSPLVLAYDQAHFSALVSMEQKENTKEQAVIPLTDSEYKLLPLHFAVDPGKGWEWGKDDSDNVRLASVILSLEVKLHLLHSYMNVKWIPLSSDAQAPLAQPESPTASAGDEPRSTPESGDSDKESVGSSSTSNEGGRRKEKSKRDREKDKKRADSVANKLGSFGKTLGSKLKKNMGGLMHSKGSKPGGVGTGLGGSSGTETLEKKKKNSLKSWKGGKEEAAGDGPVSEKPPAESVGNGGSKYSQEVMQSLSILRTAMQGEGKFIFVGTLKMGHRHQYQEEMIQRYLSDAEERFLAEQKQKEAERKIMNGGIGGGPPPAKKPEPDAREEQPTGPPAESRAMAFSTGYPGDFTIPRPSGGGVHCQEPRRQLAGGPCVGGLPPYATFPRQCPPGRPYPHQDSIPSLEPGSHSKDGLHRGALLPPPYRVADSYSNGYREPPEPDGWAGGLRGLPPTQTKCKQPNCSFYGHPETNNFCSCCYREELRRREREPDGELLVHRF [OTUD7B] | 0.376 | 50.8 | 50.9 | -0.0993 | 0.347 | 0.243
5 | MAFQKAVKGTILVGGGALATVLGLSQFAHYRRKQMNLAYVKAADCISEPVNREPPSREAQLLTLQNTSEFDILVIGGGATGSGCALDAVTRGLKTALVERDDFSSGTSSRSTKLIHGGVRYLQKAIMKLDIEQYRMVKEALHERANLLEIAPHLSAPLPIMLPVYKWWQLPYYWVGIKLYDLVAGSNCLKSSYVLSKSRALEHFPMLQKDKLVGAIVYYDGQHNDARMNLAIALTAARYGAATANYMEVVSLLKKTDPQTGKVRVSGARCKDVLTGQEFDVRAKCVINATGPFTDSVRKMDDKDAAAICQPSAGVHIVMPGYYSPESMGLLDPATSDGRVIFFLPWQKMTIAGTTDTPTDVTHHPIPSEEDINFILNEVRNYLSCDVEVRRGDVLAAWSGIRPLVTDPKSADTQSISRNHVVDISESGLITIAGGKWTTYRSMAEDTINAAVKTHNLKAGPSRTVGLFLQGGKDWSPTLYIRLVQDYGLESEVAQHLAATYGDKAFEVAKMASVTGKRWPIVGVRLVSEFPYIEAEVKYGIKEYACTAVDMISRRTRLAFLNVQAAEEALPRIVELMGRELNWDDYKKQEQLETARKFLYYEMGYKSRSEQLTDRSEISLLPSDIDRYKKRFHKFDADQKGFITIVDVQRVLESINVQMDENTLHEILNEVDLNKNGQVELNEFLQLMSAIQKGRVSGSRLAILMKTAEENLDRRVPIPVDRSCGGL [GPD2] | 0.104 | 59.2 | 59 | -0.0945 | -2.62 | -2.93
6 | MKFAEHLSAHITPEWRKQYIQYEAFKDMLYSAQDQAPSVEVTDEDTVKRYFAKFEEKFFQTCEKELAKINTFYSEKLAEAQRRFATLQNELQSSLDAQKESTGVTTLRQRRKPVFHLSHEERVQHRNIKDLKLAFSEFYLSLILLQNYQNLNFTGFRKILKKHDKILETSRGADWRVAHVEVAPFYTCKKINQLISETEAVVTNELEDGDRQKAMKRLRVPPLGAAQPAPAWTTFRVGLFCGIFIVLNITLVLAAVFKLETDRSIWPLIRIYRGGFLLIEFLFLLGINTYGWRQAGVNHVLIFELNPRSNLSHQHLFEIAGFLGILWCLSLLACFFAPISVIPTYVYPLALYGFMVFFLINPTKTFYYKSRFWLLKLLFRVFTAPFHKVGFADFWLADQLNSLSVILMDLEYMICFYSLELKWDESKGLLPNNSEESGICHKYTYGVRAIVQCIPAWLRFIQCLRRYRDTKRAFPHLVNAGKYSTTFFMVTFAALYSTHKERGHSDTMVFFYLWIVFYIISSCYTLIWDLKMDWGLFDKNAGENTFLREEIVYPQKAYYYCAIIEDVILRFAWTIQISITSTTLLPHSGDIIATVFAPLEVFRRFVWNFFRLENEHLNNCGEFRAVRDISVAPLNADDQTLLEQMMDQDDGVRNRQKNRSWKYNQSISLRRPRLASQSKARDTKVLIEDTDDEANT [XPR1] | -0.193 | 52.2 | 51.1 | -0.121 | -0.783 | -1.57
7 | HNRNPAB | 0.308 | 55.3 | 54.4 | 0.251 | -0.524 | -3.14
8 | MVAPGLVLGLVLPLILWADRSAGIGFRFASYINNDMVLQKEPAGAVIWGFGTPGATVTVTLRQGQETIMKKVTSVKAHSDTWMVVLDPMKPGGPFEVMAQQTLEKINFTLRVHDVLFGDVWLCSGQSNMQMTVLQIFNATRELSNTAAYQSVRILSVSPIQAEQELEDLVAVDLQWSKPTSENLGHGYFKYMSAVCWLFGRHLYDTLQYPIGLIASSWGGTPIEAWSSGRSLKACGVPKQGSIPYDSVTGPSKHSVLWNAMIHPLCNMTLKGVVWYQGESNINYNTDLYNCTFPALIEDWRETFHRGSQGQTERFFPFGLVQLSSDLSKKSSDDGFPQIRWHQTADFGYVPNPKMPNTFMAVAMDLCDRDSPFGSIHPRDKQTVAYRLHLGARALAYGEKNLTFEGPLPEKIELLAHKGLLNLTYYQQIQVQKKDNKIFEISCCSDHRCKWLPASMNTVSTQSLTLAIDSCHGTVVALRYAWTTWPCEYKQCPLYHPSSALPAPPFIAFITDQGPGHQSNVAK [SIAE] | 0.569 | 58 | 57.9 | -0.103 | 1.01 | -0.521
